The target in assay [1] is T1, Mouse TNFα (mouse, UniProt P06804 80-235).
T1 sequence (looked up): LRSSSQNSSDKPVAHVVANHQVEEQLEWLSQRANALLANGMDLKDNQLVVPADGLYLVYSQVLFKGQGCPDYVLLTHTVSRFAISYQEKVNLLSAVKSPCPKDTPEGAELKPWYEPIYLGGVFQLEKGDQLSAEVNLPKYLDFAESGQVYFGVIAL
The assay can be described thus: cell-based or functional assay.

The target in assay [2] is T2, human Tumour Necrosis Factor alpha (hTNFα) (human, UniProt P01375 77-233).
T2 construct: Coated on ELISA plates, amine-coupled to the BIAcore chip, or biotinylated on Octet streptavidin sensors; soluble in the L929 assay; also called rhTNFα; hTNF-alpha
T2 sequence (P01375 77-233 limits assumed): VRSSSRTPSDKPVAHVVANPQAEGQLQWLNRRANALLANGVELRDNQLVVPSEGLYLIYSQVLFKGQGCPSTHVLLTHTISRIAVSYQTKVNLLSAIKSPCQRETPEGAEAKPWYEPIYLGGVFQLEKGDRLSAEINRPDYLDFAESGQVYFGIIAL
The assay can be described thus: binding profile of humanised D1 versions on hTNF-alpha (FIG. 16).

Assay [3] concerns the target T2, human Tumour Necrosis Factor alpha …. The assay can be described thus: cell-based or functional assay.
Assay [4] has the same target. Nature of the assay: SPR, BIAcore T200, TNFα amine-coupled to chip, 1:1 Langmuir fit. Background: Surface plasmon resonance follows binding to a sensor surface in real time, without labels.
The target is the same in assay [5]. The assay can be described thus: kinetics on hTNFα, Table 1 (instrument for Ka/Kd not stated).
The target is the same in assay [6]. The assay can be described thus: BLI, Octet RED96, biotinylated hTNF-α on streptavidin sensors. Background: BLI is a label-free optical method that tracks binding on a fibre tip over time.
Assay [7] shares this target. The assay can be described thus: BLI, Octet RED96, biotinylated hTNF-α on streptavidin sensors (BIAcore cell is n/a).
In assay [8] the target is T3, mouse ICOS ligand (mouse, UniProt Q9JHJ8 47-279, limits assumed).
T3 construct: the construct is not described; also called mICOSL
T3 sequence (looked up): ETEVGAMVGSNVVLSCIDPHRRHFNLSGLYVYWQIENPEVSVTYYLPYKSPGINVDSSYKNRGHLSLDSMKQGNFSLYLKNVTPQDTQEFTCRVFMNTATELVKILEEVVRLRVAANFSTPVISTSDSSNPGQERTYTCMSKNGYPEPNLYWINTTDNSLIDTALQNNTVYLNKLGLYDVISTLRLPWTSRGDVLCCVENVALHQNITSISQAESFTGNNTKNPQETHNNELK
The assay can be described thus: binding ELISA on human and mouse ICOS ligands (FIG. 11). Background: ELISA stands for enzyme-linked immunosorbent assay.

The target in assay [9] is T2, human Tumour Necrosis Factor alpha …. Nature of the assay: statement in the legend of the Caco-2 permeability assay (FIG. 8).
Assay [10] has as its target T4, human ICOS ligand (human, UniProt O75144 19-258, limits assumed).
T4 construct: also called hICOSL
T4 sequence (looked up): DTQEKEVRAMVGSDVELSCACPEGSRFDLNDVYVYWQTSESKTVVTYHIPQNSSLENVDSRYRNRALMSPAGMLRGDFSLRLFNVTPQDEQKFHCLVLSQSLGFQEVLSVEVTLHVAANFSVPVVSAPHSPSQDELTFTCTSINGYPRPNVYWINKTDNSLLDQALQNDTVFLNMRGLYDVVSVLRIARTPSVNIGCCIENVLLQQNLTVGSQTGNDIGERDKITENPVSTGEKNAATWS
Nature of the assay: binding ELISA on human and mouse ICOS ligands (FIG. 11).

B1: TNF S17-Quad-X™ with (Gly4Ser)5 (Fc fusion)
chain: ASVNQTPRTATKETGESLTINCVLTDTHAKVFTTSWFRKNPGTTDWERMSIGGRYVESVNKGAKSFSLRIKDLTVADSATYICRAGGYLSQPRVYWDVYGAGTVLTVNGGGGSGGGGRTEPRGPTIKPCPPCKCPAPNLLGGPSVFIFPPKIKDVLMISLSPIVTCVVVDVSEDDPDVQISWFVNNVEVHTAQTQTHREDYNSTLRVVSALPIQHQDWMSGKEFKCKVNNKDLPAPIERTISKPKGSVRAPQVYVLPPPEEEMTKKQVTLTCMVTDFMPEDIYVEWTNNGKTELNYKNTEPVLDSDGSYFMYSKLRVEKKNWVERNSYSCSVVHEGLHNHHTTKSFSRTPGKGGGGSGGGGSGGGGSGGGGSGAHSASVNQTPRTATKETGESLTINCVLTDTHAKVFTTSWFRKNPGTTDWERMSIGGRYVESVNKGAKSFSLRIKDLTVADSATYICRAGGYLSQPRVYWDVYGAGTVLTVN
With B1, the “fold improvement of in vitro neutralizing potency over S17-Fc” value in [1] was around 40 fold.

B2: SoloMER™ VNAR D1-v2 (VNAR)
VNAR: ARVDQSPSSLSASVGDRVTITCVLRDSHCATSSTYWYRKKSGSTNEESISKGGRYVETVNSGSKSFTLTISSLQPEDFATYYCASECQYGLAEYDVYGGGTKVEIKH
notes: Humanised D1 VNAR with His tag; also called soloMER D1-v2
Turning to B2, the binding result in assay [2] is listed as “binds”.

B3: SoloMER™ VNAR D1-v4 (VNAR)
VNAR: ARVDQSPSSLSASVGDRVTITCVLRDSHCATSSTYWYRKKPGSTNEESISKGGRFSGSGSSGSKSFTLTISSLQPEDFATYYCASECQYGLAEYDVFGQGTKVEIKH
notes: Humanised D1 VNAR with His tag
Turning to B3, in assay [2], the binding result is “binds”.

B4: SoloMER™ VNAR D1-v3 (VNAR)
VNAR: ARVDQSPSSLSASVGDRVTITCVLRDSHCATSSTYWYQQKPGKTNEESISKGGRYVETVNSGSKSFTLTISSLQPEDFATYYCASECQYGLAEYDVYGGGTKVEIKH
notes: as for B3
On to B4, for which the binding result in assay [2] is given as “binds”.

B5: TNF VNAR D1-BA11-D1 (VNAR)
chain: ARVDQTPQTITKETGESLTINCVLRDSHCATSSTYWYRKKSGSTNEESISKGGRYVETVNSGSKSFSLRINDLTVEDSGTYRCASECQYGLAEYDVYGGGTVVTVNGGGGSGGGGSGGGGSGGGGSGAHSTRVDQSPSSLSASVGDRVTITCVLTDTSYPLYSTYWYRKNPGSSNKEQISISGRYSESVNKGTKSFTLTISSLQPEDSATYYCRAMSTNIWTGDGAGTKVEIKGGGGSGGGGSGGGGSGGGGSGAHSARVDQTPQTITKETGESLTINCVLRDSHCATSSTYWYRKKSGSTNEESISKGGRYVETVNSGSKSFSLRINDLTVEDSGTYRCASECQYGLAEYDVYGGGTVVTVNHHHHHHHEQKLISEEDL
notes: Tandem VNAR trimer with His and myc tags
Usually Kd stands for the equilibrium constant for the complex coming apart. Low readings indicate a tighter complex, high ones a looser complex. By koff is commonly meant the rate constant with which the complex falls apart. Read a low koff as a long-lived complex. For orientation: kon means the second-order rate constant of association. In the case of B5, the “ND50 (nM), neutralisation of hTNF-alpha cytotoxicity in L929 cells” value (shortened to “ND50 (nM), neutralisation”) in assay [3] worked out at 0.38 nM. The same molecule returned a dissociation constant Kd in [4] of 4 nM. In assay [5], this molecule had a koff of 0.0002 s⁻¹ and an on-rate (kon) of 1.9e+06 M⁻¹ s⁻¹. The molecule further showed a Kd in assay [6] of 0.1 nM.

B6: TNF VNAR D1-BA11-B4 (VNAR)
chain: ARVDQTPQTITKETGESLTINCVLRDSHCATSSTYWYRKKSGSTNEESISKGGRYVETVNSGSKSFSLRINDLTVEDSGTYRCASECQYGLAEYDVYGGGTVVTVNGGGGSGGGGSGGGGSGGGGSGAHSTRVDQSPSSLSASVGDRVTITCVLTDTSYPLYSTYWYRKNPGSSNKEQISISGRYSESVNKGTKSFTLTISSLQPEDSATYYCRAMSTNIWTGDGAGTKVEIKGGGGSGGGGSGGGGSGGGGSGAHSARVDQTPQTITKETGESLTINCVLRDSNCALSSMYWYRKKSGSTNEESISKGGRYVETVNSGSKSFSLRINDLTVEDSGTYRCKVYIPCIDELVYMISGGTSGPIHDVYGGGTVVTVNHHHHHHHEQKLISEEDL
notes: as for B5
The molecule B6 gave an equilibrium dissociation constant (Kd) in [7] of 0.33 nM. Moreover, in [5], the off-rate (koff) was determined as 0.006 s⁻¹ and the kon was 1.7e+06 M⁻¹ s⁻¹.

B7: ICOS VNAR CC3-Fc-CC3 (Fc fusion)
chain: TRVDQTPRTATKETGESLTINCVLTDTEYGLFSTSWFRKNPGTTDWERMSIGGRYVESVNKGAKSFSLRIKDLTVADSATYYCKALGWWPPAFPHWYDGAGTVLTVNGGGGSGGGGRTEPKSSDKTHTCPPCPAPEAAGAPSVFLFPPKPKDTLMISRTPEVTCVVVDVSHEDPEVKFNWYVDGVEVHNAKTKPREEQYNSTYRVVSVLTVLHQDWLNGKEYKCKVSNKALPAPIEKTISKAKGQPREPQVYTLPPSREEMTKNQVSLTCLVKGFYPSDIAVEWESNGQPENNYKTTPPVLDSDGSFFLYSKLTVDKSRWQQGNVFSCSVMHEALHNHYTQKSLSLSPGKTAAAATAAAATAAAATAAAATRVDQTPRTATKETGESLTINCVLTDTEYGLFSTSWFRKNPGTTDWERMSIGGRYVESVNKGAKSFSLRIKDLTVADSATYYCKALGWWPPAFPHWYDGAGTVLTVN
notes: Human IgG1 Fc; also called anti-ICOSL Quad-X™ construct
In the case of B7, in assay [8], the binding result was “binds”.

B8: TNF VNAR DIMER D1-B4 (VNAR)
chain: ARVDQTPQTITKETGESLPINCVLRDSHCATSSTYWYRKKSGSTNEESISKGGRYVETVNSGSKSFSLRINDLTVEDSGTYRCASECQYGLAEYDVYGGGTVVTVNGGGGSGGGGGSGAHSARVDQTPQTITKETGESLTINCVLRDSNCALSSMYWYRKKSGSTNEESISKGGRYVETVNSGSKSFSLRINDLTVEDSGTYRCKVYIPCIDELVYMISGGTSGPIHDVYGGGTVVTVNAAAHHHHHHGAAEQKLISEEDL
Consider B8, for which the “ND50 (nM), neutralisation” value in [3] was 8 nM. The molecule further yielded a Kd in assay [7] of 15.9 nM. Further, in assay [5], the off-rate constant (koff) came out at 0.0005 s⁻¹ and the on-rate (kon) was determined as 270000 M⁻¹ s⁻¹.

B9: TNF VNAR B4 (VNAR)
VNAR: ARVDQTPQTITKETGESLTINCVLRDSNCALSSMYWYRKKSGSTNEESISKGGRYVETVNSGSKSFSLRINDLTVEDSGTYRCKVYIPCIDELVYMISGGTSGPIHDVYGGGTVVTVNA
notes: Nurse shark VNAR single domain, expressed with His and myc tags
Turning to B9, the binding result in assay [9] is recorded as “binds”.

B10: TNF VNAR DIMER D1-D1 (VNAR)
chain: ARVDQTPQTITKETGESLTINCVLRDSHCATSSTYWYRKKSGSTNEESISKGGRYVETVNSGSKSFSLRINDLTVEDSGTYRCASECQYGLAEYDVYGGGTVVTVNGGGGSGGGGGSGAHSARVDQTPQTITKETGESLTINCVLRDSHCATSSTYWYRKKSGSTNEESISKGGRYVETVNSGSKSFSLRINDLTVEDSGTYRCASECQYGLAEYDVYGGGTVVTVNAAAHHHHHHGAAESKLISEEDL
On to B10, for which, in assay [3], the “ND50 (nM), neutralisation” value amounted to 7 nM. In assay [7], this molecule displayed an equilibrium dissociation constant (Kd) of 0.6 nM. Moreover, in [5], the off-rate constant (koff) is 0.000316 s⁻¹ and the on-rate constant (kon) came to 500000 M⁻¹ s⁻¹.

B11: ICOS VNAR CC3-Fc-2D4 (Fc fusion)
chain: TRVDQTPRTATKETGESLTINCVLTDTEYGLFSTSWFRKNPGTTDWERMSIGGRYVESVNKGAKSFSLRIKDLTVADSATYYCKALGWWPPAFPHWYDGAGTVLTVNGGGGSGGGGRTEPKSSDKTHTCPPCPAPEAAGAPSVFLFPPKPKDTLMISRTPEVTCVVVDVSHEDPEVKFNWYVDGVEVHNAKTKPREEQYNSTYRVVSVLTVLHQDWLNGKEYKCKVSNKALPAPIEKTISKAKGQPREPQVYTLPPSREEMTKNQVSLTCLVKGFYPSDIAVEWESNGQPENNYKTTPPVLDSDGSFFLYSKLTVDKSRWQQGNVFSCSVMHEALHNHYTQKSLSLSPGKTAAAATAAAATAAAATAAAATRVDQTPRTATKETGESLTINCVLTDTDYGLFSTSWFRKNPGTTDWERMSIGGRYVESVNKGAKSFSLRIKDLTVADSATYYCKAFTWPWEWPDRWFRPWYDGAGTVLTVN
notes: as for B7
B11: the binding result in [8] and in assay [10] was “binds” each time.

(Values after patent US20240247058A1 (published 2024).)
